Measured values as given in PMC10073072 (2023).

Columns and labels:
[1] = target: METTL9^46–318 (human, UniProt Q9H1A3 46-318); test: ITC
[2] = target: METTL9^M6 (METTL9^46–318 with six mutations) (human, UniProt Q9H1A3 46-318); test: ITC
METTL9^M6 (METTL9^46–318 with six mutations), sequence (Q9H1A3 other isoform, or with tags, fused parts or gaps): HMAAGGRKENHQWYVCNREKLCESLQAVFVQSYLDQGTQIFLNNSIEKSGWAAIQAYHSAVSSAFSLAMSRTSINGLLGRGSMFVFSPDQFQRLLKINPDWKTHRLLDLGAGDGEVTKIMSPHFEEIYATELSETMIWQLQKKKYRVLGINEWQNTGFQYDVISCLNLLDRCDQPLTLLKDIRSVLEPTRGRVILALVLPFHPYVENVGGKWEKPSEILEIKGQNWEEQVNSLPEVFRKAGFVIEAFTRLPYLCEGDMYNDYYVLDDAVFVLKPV

METTL9^46–318, sequence (Q9H1A3 46-318): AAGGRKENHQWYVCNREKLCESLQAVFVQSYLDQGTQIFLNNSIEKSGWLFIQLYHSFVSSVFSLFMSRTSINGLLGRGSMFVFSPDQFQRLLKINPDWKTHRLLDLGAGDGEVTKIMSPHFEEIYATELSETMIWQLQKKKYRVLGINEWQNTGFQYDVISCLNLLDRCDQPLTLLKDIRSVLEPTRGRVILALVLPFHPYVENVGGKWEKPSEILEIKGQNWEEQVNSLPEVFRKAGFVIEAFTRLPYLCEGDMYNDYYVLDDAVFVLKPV

| Binder | Kd [1] | Kd [2] |
| --- | --- | --- |
| RGHGHSHGKGC [mouse S100A9^101–111 peptide] | 2.3 µM | 3.6 µM |
| GHQGHSHGHQGGY [SLC39A5^369–380 peptide] | 9.3 µM | 9 µM |
